Measurements from paper PMC9184524, “Structural Basis for pH-gating of the K^+ channel TWIK1 at the selectivity filter” (Nature Communications, 2022).

Molecular target: the molecule itself
Assay: cryo-EM structure; TWIK1 in MSP1D1 nanodiscs (2:1:1 DOPE:POPS:POPC), 20 mM HEPES pH 7.4, 150 mM KCl, 1 mM EDTA; C2 symmetry imposed; homodimer

B1: Rattus norvegicus TWIK1 (natural protein)
chain: MLQSLAGSSCVRLVERHRSAWCFGFLVLGYLLYLVFGAVVFSSVELPYEDLLRQELRKLKRRFLEEHECLSEPQLEQFLGRVLEASNYGVSVLSNASGNWNWDFTSALFFASTVLSTTGYGHTVPLSDGGKAFCIIYSVIGIPFTLLFLTAVVQRVTVHVTRRPVLYFHIRWGFSKQVVAIVHAVLLGFVTVSCFFFIPAAVFSVLEDDWNFLESFYFCFISLSTIGLGDYVPGEGYNQKFRELYKIGITCYLLLGLIAMLVVLETFCELHELKKFRKMFYVKKDKDEDQVHIMEHDQLSFSSITEQAAGLKEEQKQNEPFVASQSPPYEDGSANHSNSLEVLFQ
notes: TWIK1 (K2P1.1, KCNK1), Rattus norvegicus, Uniprot Q9Z2T2, full length; gene codon-optimized for Pichia pastoris; W20-Y281 modeled at pH 5.5, G24-F280 at pH 7.4; linker SNS and the part of the human rhinovirus 3C site (LEVLFQ/GP) left on the C-terminus after cleavage of EGFP-His10; cleaved on the resin with PPX before SEC and nanodisc reconstitution (MSP1D1 at pH 7.4, MSPE3D1 at pH 5.5); also …
stoichiometry N: 2
